Test results reported in the supplement of paper PMC7877785.
± gives the uncertainty stated by the source.

Assay: self-splicing fitness, log relative to wild type (ln ratio); higher = more splicing; Tetrahymena group I intron in knt gene, E. coli kanamycin selection, DiMSum; sequences stand for … in CUCUCU…GGAGGGAAAAGUUAUCAGGCAUGCACCUGGUAGCUAGUCUUUAAACCAAUAGAUUGCAUCGGUUUAAAAGGCAAGACCGUCAAAUUGCGGGAAAGGGGUCAACAGCCGUUCAGUACCAAGUCUCAGGGGAAACUUUGAGAUGGCCUUGCAAAGGGUAUGGUAAUAAGCUGACGGACAUGGUCCUAACCACGCAGCCAAGUCCUAAGUCAACAGAUCUUCUGUUGAUAUGGAUGCAGUUCACAGACUAAAUGUCGGUCGGGGAAGAUGUAUUCUUCUCAUAAGAUAUAGUCGGACCUCUCCUUAAUGGGAGCUAGCGGAUGAAGUGAUGCAACACUGGAGCCGCUGGGAACUAAUUUGUAUGCGAAAGUAUAUUGAUUAGUUUUGGAGUACUCGUGGUCG
In short: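 DiMSum derived fitness as the error-weighted combination of fold changes across replicates, kanamycin versus no kanamycin, normalised to wild type. E. coli BL21(DE3) held the library, which randomised all eight P1ex-region intron nucleotides within the knt kanamycin-resistance gene on pET-22b(+). Six replicate transformations grew overnight at 37°C or 30°C on LB agar with or without 25 μg/mL kanamycin, also containing 100 μg/mL carbenicillin, 50 μM IPTG and 0.2% rhamnose, and pooled colonies were amplicon-sequenced on an Illumina HiSeq 2500.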

Sequence | self-splicing fitness (ln) (30 °C) | self-splicing fitness (ln) (37 °C)
GAGCAGCAAUAUUACGAAUA | -2.87 ± 0.37 | -1.8 ± 0.24
GAGCAGCAAUAUUACGAAUC | -2.08 ± 0.07 | -1.22 ± 0.083
GAGCAGCAAUAUUACGAGAA | -2.25 ± 0.31 | -2.61 ± 0.36
GAGCAGCAAUAUUACGAGCA | -0.982 ± 0.11 | -0.888 ± 0.13
GAGCAGCAAUAUUACGAGUU | -2.48 ± 0.13 | -1.1 ± 0.13
GAGCAGCAAUAUUACGAUCU | -1.71 ± 0.15 | -0.141 ± 0.12
GAGCAGCAAUAUUACGAUGG | -3.68 ± 0.25 | -2.61 ± 0.31
GAGCAGCAAUAUUACGCAAA | -1.4 ± 0.2 | -0.683 ± 0.14
GAGCAGCAAUAUUACGCAAG | -1.36 ± 0.16 | -0.218 ± 0.3
GAGCAGCAAUAUUACGCAAU | -1.89 ± 0.12 | -1.53 ± 0.2
GAGCAGCAAUAUUACGCCAG | -2.49 ± 0.42 | -2.85 ± 0.34
GAGCAGCAAUAUUACGCCUA | -0.758 ± 0.064 | 0.0984 ± 0.085
GAGCAGCAAUAUUACGCCUU | -3.8 ± 0.32 | -1.32 ± 0.19
GAGCAGCAAUAUUACGCGAA | -3.01 ± 0.25 | -1.27 ± 0.15
GAGCAGCAAUAUUACGCGGC | -3.97 ± 0.25 | -1.87 ± 0.14
GAGCAGCAAUAUUACGGAUA | -2.15 ± 0.22 | -2.11 ± 0.26
GAGCAGCAAUAUUACGGCAG | -2.34 ± 0.16 | -1.69 ± 0.19
GAGCAGCAAUAUUACGGCCU | -0.475 ± 0.07 | -0.0538 ± 0.081
GAGCAGCAAUAUUACGGCUG | -3.87 ± 0.26 | -2.51 ± 0.28
GAGCAGCAAUAUUACGGCUU | -4.43 ± 0.33 | -2.53 ± 0.27

Sequence | self-splicing fitness (ln) (30 °C) | self-splicing fitness (ln) (37 °C)
GAGCAGCAAUAUUACGGGAU | -3.27 ± 0.27 | -3.1 ± 0.23
GAGCAGCAAUAUUACGGUAA | -1.95 ± 0.13 | -0.00417 ± 0.12
GAGCAGCAAUAUUACGGUUU | -3.11 ± 0.17 | -1.84 ± 0.19
GAGCAGCAAUAUUACGUGAA | -0.549 ± 0.079 | -0.526 ± 0.13
GAGCAGCAAUAUUACGUUCG | -1.51 ± 0.097 | -0.474 ± 0.098
GAGCAGCAAUAUUACGUUGC | -4.45 ± 0.34 | -3.41 ± 0.23
GAGCAGCAAUAUUACGUUUA | -1.17 ± 0.092 | -1 ± 0.097
GAGCAGCAAUAUUACGUUUU | -2.63 ± 0.092 | -2.3 ± 0.12
GAGGAGCAAUAUUACGAAGG | -4.59 ± 0.46 | -2.39 ± 0.27
GAGGAGCAAUAUUACGACGA | -1.2 ± 0.13 | 0.494 ± 0.13
GAGGAGCAAUAUUACGAGAC | -2.67 ± 0.22 | –
GAGGAGCAAUAUUACGAUUU | -1.07 ± 0.1 | -0.084 ± 0.13
GAGGAGCAAUAUUACGCAGC | – | -1.04 ± 0.44
GAGGAGCAAUAUUACGCAUU | -2.99 ± 0.43 | -0.645 ± 0.33
GAGGAGCAAUAUUACGCCGG | -3.44 ± 0.48 | -2.68 ± 0.36
GAGGAGCAAUAUUACGCGUC | – | -1.75 ± 0.38
GAGGAGCAAUAUUACGGAGA | -2.95 ± 0.2 | -2.25 ± 0.27
GAGGAGCAAUAUUACGGCAC | -2.08 ± 0.19 | -1.64 ± 0.19
GAGGAGCAAUAUUACGGGGA | -1.86 ± 0.23 | -3.17 ± 0.4
